Data taken from article PMC3540129.

Assays:
[1] = biological target: Kv7.4 (KCNQ4) B segment (Q4B, residues 522-557), tag removed (human) (UniProt P56696); assay: SEC-MALS
[2] = biological target: Kv7.5 (KCNQ5) B-D construct (Q5BD), tag removed (human) (UniProt Q9NR82); assay: SEC

UniProt P56696, sequence (P56696 522-557): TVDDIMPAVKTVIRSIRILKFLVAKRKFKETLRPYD

| stoichiometry N [1] | stoichiometry N [2] | Substance |
| --- | --- | --- |
| 1 |  | Calmodulin (CaM), full-length native (from UniProt P0DP23 1-149) (natural protein) |
|  | 4 | Kv7.5 (KCNQ5) B-D construct (Q5BD), tag removed (from UniProt Q9NR82 1-932) (domain or fragment) |
